US20150175705A1

T1: human prolactin receptor (PRLR) expressed on cells (human) (UniProt P16471)
T1 sequence: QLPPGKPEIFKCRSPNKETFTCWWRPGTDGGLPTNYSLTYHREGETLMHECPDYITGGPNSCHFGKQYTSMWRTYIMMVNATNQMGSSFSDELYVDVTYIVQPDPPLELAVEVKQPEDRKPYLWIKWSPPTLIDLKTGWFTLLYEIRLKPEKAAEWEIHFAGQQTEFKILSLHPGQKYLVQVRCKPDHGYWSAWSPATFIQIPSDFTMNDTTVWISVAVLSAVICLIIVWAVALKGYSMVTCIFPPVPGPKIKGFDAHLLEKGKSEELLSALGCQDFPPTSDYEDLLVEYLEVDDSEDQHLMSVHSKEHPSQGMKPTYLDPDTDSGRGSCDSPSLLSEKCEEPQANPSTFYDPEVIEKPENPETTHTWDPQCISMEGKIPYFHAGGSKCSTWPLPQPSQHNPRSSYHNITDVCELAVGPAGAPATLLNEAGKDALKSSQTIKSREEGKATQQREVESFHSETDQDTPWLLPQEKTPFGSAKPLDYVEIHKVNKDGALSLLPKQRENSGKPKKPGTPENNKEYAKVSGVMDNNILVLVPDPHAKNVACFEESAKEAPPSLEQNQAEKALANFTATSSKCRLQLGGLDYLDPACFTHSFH


Columns and labels:
[1] = target: T1, human prolactin receptor (PRLR) expressed on cells (human); assay: flow cytometry on CHO-K1 cells expressing human PRLR (clone 1G5)
[2] = target: T1, human prolactin receptor (PRLR) expressed on cells (human); assay: cell-based or functional assay

Row | Molecule | MFI [1] [MFI] | pERK1/2 inhibition IC50 [2]
1 | mAb 1167, control murine anti-PRLR monoclonal antibody (R&D Systems, catalog # MAB 1167) | 33.8 | –
2 | XHA.06.983 (antibody, from another filing, V domains shown) VH: DVQLVESGGGLVQPGGSRKLSCAASGFAFSSFGMQWVRQAPEKGLEWVAYISSGSSTIYYADTVKGRFTISRDNPKNTLFLQMTSLRSEDTAMYYCVRSGRDYWGQGTSVTVSS VL: SIVMTQTPKFLLVSAGDRVTITCKASQGVSNDVAWFQQKPGQSPKLLIYSASTRYTGVPDRLTGSGYGTDFTFTINTVQAEDLAVYFCQQDYTSPTFGGGTKLEIKR | – | 0.11
